Each block holds one binder with its values, some of them ahead of it.
Molecular target: T1, Aquifex aeolicus GatCAB B-subunit (GatB) (Aquifex aeolicus, UniProt O66766 1-478)
T1 sequence (looked up): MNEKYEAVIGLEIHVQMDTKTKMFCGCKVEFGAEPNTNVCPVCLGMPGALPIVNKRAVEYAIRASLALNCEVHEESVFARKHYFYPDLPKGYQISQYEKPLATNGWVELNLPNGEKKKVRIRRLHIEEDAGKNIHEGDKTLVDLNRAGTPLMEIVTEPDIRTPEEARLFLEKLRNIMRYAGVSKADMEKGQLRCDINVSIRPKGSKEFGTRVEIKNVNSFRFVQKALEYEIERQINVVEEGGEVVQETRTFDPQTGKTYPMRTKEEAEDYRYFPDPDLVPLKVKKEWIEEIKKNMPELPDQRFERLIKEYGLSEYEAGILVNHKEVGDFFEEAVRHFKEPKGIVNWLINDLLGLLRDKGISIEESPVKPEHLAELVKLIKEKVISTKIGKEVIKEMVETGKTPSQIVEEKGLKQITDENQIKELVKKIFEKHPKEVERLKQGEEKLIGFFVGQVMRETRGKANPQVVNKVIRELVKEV
Experiment: crystal structure

- binding result: binds
B1: Aquifex aeolicus GatCAB C-subunit (GatC) (natural protein, UniProt O67904 1-94, looked up)
chain: MVDREWVLKIAKLARLELKEEEIEVFQKQLSDILDFIDQLKELDTENVEPYIQEFEETPMREDEPHPSLDREKALMNAPERKDGFFVVPRVVEV

- binding result: binds
B2: Aquifex aeolicus GatCAB A-subunit (GatA) (enzyme, UniProt O66610 1-478, looked up)
chain: MLWKKSLSELRELLKRGEVSPKEVVESFYDRYNQTEEKVKAYITPLYGKALKQAESLKERELPLFGIPIAVKDNILVEGEKTTCASKILENFVAPYDATVIERLKKAGALIVGKTNLDEFAMGSSTEYSAFFPTKNPWDLERVPGGSSGGSAASVAVLSAPVSLGSDTGGSIRQPASFCGVIGIKPTYGRVSRYGLVAFASSLDQIGVFGRRTEDVALVLEVISGWDEKDSTSAKVPVPEWSEEVKKEVKGLKIGLPKEFFEYELQPQVKEAFENFIKELEKEGFEIKEVSLPHVKYSIPTYYIIAPSEASSNLARYDGVRYGYRAKEYKDIFEMYARTRDEGFGPEVKRRIMLGTFALSAGYYDAYYLKAQKVRRLITNDFLKAFEEVDVIASPTTPTLPFKFGERLENPIEMYLSDILTVPANLAGLPAISIPIAWKDGLPVGGQLIGKHWDETTLLQISYLWEQKFKHYEKIPLT
modifications: acyl-enzyme intermediate at Ser171 formed with Asn or Gln in the co-crystals

— article PMC2830067 (Journal of molecular biology, 2009)
